Target: enzymatically [3H] acetylated histone H3 peptide (amino acids 1-24) (UniProt P68431)

With human SIRT2 with a C-terminal FLAG tag the “standard histone deacetylase assay (radioactive, H3 peptide substrate)” value was “These enzymes also deacetylate histones as determined in a standard histone deacetylase assay”.
